Assay: soluble on expression in E. coli; label from the status in PepcDB or PDB records

Sequence	soluble on expression in E. coli
MAHHHHHHMPSFFPSMPPCDRAAMLTVCEARRQYLAAHVTQLYANTNPAELWSSIVKYRERNSTELLDTVNSYDELRLSYSGYRKVVYSLVFRVSPEEEKQASVEERESRKKLYFNHPFLSPATFLAFPRAEDGTIPAVPMYAFAAKRLLLYRMRVELELVARVLPPSLQDPATRVTHRLLCPPSSSSPLSNGLTQEDIEAFLYDLLPNLRLVRDMPPWMQPYYLCHASRKFMFMCDTRRTGAISIESMMKSDVFSELLRVFESDANDAIVVFTKGCTVDVAASLVTADAAEDDTIPALVLFHEGEGNNQDDMYIVKTLTDGVVLEVRRGQLYWNSGSTEFLQPDVLCMDNWFSLALMARIYEHFTSLDIDGDGVLTVDELSRYSDGSFTRLVIERAFECHVPHSGKRHIMDYKTYLDFVIATEHAATLPAMKYIWSILDLEENRKFVTVETLRCFCKAIANELIANGLMTDISAQSILSEVIDMINPKWHEWVELDDIVRSGHQATVLPILLSYRNFYAYDCREQTAAAANDEYA	not soluble
MAHHHHHHMPSMTSLLHKSLVVCFTSRISIFTSRPARGTAASAQLSLSSVPTAEHLECWTRQGDCVVGREEVACASCLGGYLAAGTISGLVLLYFCGAAESLVKELVRFNVGYGVTGMQLLPNDTLLVVTSVGDVWRWPLCDLLRNADASGAEGEKDEATEAEPTAAAHQPPLPLAAPRVPAAPSPQDKTLHTEPRVPATPEEVSYTQEGDTEDRSFSAHDTSTLAHTPQREREATARVEEIVTAVRVGADVPLVGARSDAEEQGTPSVHLSTASASLRALSASSENDGDEDHPDERGNDNTDMDARRAEPATVSCLPPPPPLASPTVSDKFEEKRGVGGVTRCATEFQRRTLYDPEQSTEEPGVVDMGVPSSAAGNSADLSHDGLRIAVSPPSTADNTAHHDAVLEDSGADVPEVAARGSAAGAAAVAAKEGTISDKHIQPFQRNHGDLSDTADVAQGTAHSSPGITSRQGTGMKAAVDDLEHEFAHAMKRLLGPTVGVEGLRKDRRMNPRKVAGVLANLTNQQAAAAGAKGLSYEAPSQPRALEGPNSTKLLEEKRTTLEAAVFDFEAYRQAHRLEVDALQYHHPVPAPTYTLQDRVFDAVESAGRLCDKEAGRATGAAGNAAATLPAAPEDELRDVTYGKVKWTLDPQIAEERRRGGPEMAQHHCDHLIFSTPYPAKATVLFAEEAPLMPSTAWEEVLLLPLPLPPAPSVF	soluble
MAHHHHHHMPSSSKKQNVVTFSEVHDPLYGMLSPLSPSPLVVRHVQYPSLHHYFLCERFKGSPAEQWMAEATTVWSLERLVKTAEEEGYQRHNWNKVKVDVMLLGTYFKFKQNEAARAVLLSTQPSLLLYHTPTDDFWGDGGDGKGKNVLGVVSMAVRARLHSEEERQKQRPPASGRHSKSAAAKSPALPATRT	soluble
MAHHHHHHMPSSSPLLGPVFEVITPRLWVRYLQRYLDVPELLTLSETCWTFFVRCNEEPLWRELCLRPPYIDVQQKLGLFTFRGSWKYTVCAYRAEGAGADRQSSRSSTVVLAQSRSIADASLRFNVLLPRIVSCLQVSGEMSSDDGAAWMSQLRSPCAAGTGAASEVSVGLDNGRDEGAAEATVGAEMSVGAWQENVLGKPYAPTLAVKYLSLSAGAINYFMRDGTFLRPPLHALRQPQHRLVRPHTEFTDYNWYGTCLLDLVPLPQWCTNAQFFATLRWKTSGNTRRLQCCGHATAALDDTGGVRGPSHLPDELRGVPGVVDRRYRLSVDAFQREYEVPNMPVVLTGCIEDWPARDTWQDIHFFHCFASEALRANGRTADGRRFRMSAADYLAYEVATNAEKPMYVFDKAALQRSTALRADYAIPPYFTEDFFSYMTEEDRPDYRWLLVGPDGSGSPFHTDPHGTCAWNAVLSGCKRVTLYPPHVVPPGVEEEWIHSDYYASEPCLRWYRTRGDSMPSGSAVCGTFSKEHAGEAYHGSARELPPVEALVFPGDLVFIPSGWWHQVLNIGHTVAVTHNLCSPLTFPRVVADMNAYADRTVRKRFQCALRRAGRDELAVQLRVPGAKRGVYAGHLL	not soluble
MAHHHHHHMPTASASREPLVPSINFSMVCPGVYRSGYPTKKNYSFLCALRLRSILYLCPEDYAESNLKFCEENGIHVLRFPTEGNKEPFCDVSEPLMHRILSAICDTRNLPLLIHCNKGKHRTGTVVACLRHLQGWSLVSIFEEYKRFASDKARVGDQQYVELYHPIVKLTPPFVALWVTVTPRVTLVTSDRELMEAEAMQLGYSLLAPDKHLMKNGSSTNKSTAPTAAAASGAASVTAAPAAAAAATAGSGPTVAVSTSGPSAAGAMQQQQPSQPVTSAASASASNSGHSLAPSLMATAATPAAADR	not soluble
MAHHHHHHMQAITASTPSQQYSVGAGIEKPLGVTTSADWMTMYERKPHGNSTLFELEAMVAKRMEFLAWVDQQINSPQAKNFDSVLDAIIARLPEERRSSAATDGSRVKMISLGYDETAAGGCSDRRSSSRGSTGSAAGANQAASIVFAPEEDVTSHLLCRFAFCMSERWRDWLVRTERVLLTARIKMEMAKRPFTFLVDLMKRNGLPCAPLTDKQLADPMLQEYLEYRRVKAESARESEGRVENYYAVPLSLATRLIKKRYVLCRAGQAILFRDQVQEVFLTVFCARLNRGLHNAYLARVKQQALEEETAKSTVMAMLDAFLQQFISDPVDTLQEGVAGSVRARDVQRLAQAHFPPCMRAIDWHLRREGHLKHHGRFMYGLFLKSIGLSLEDSLELFATLMKVKGGGSVEAFAKTAYGYNVRHNYGMEGKKMSYSSASCATILGLPPVVDQHDCHGCPFRFRDEGALRTMLGKETENPKGCDYPSVRPTPGDIEDIVSDSKAQHYTRACYKYFMATHPGARRDTLFRSPYEYYSVSLEFETPSDGTESARPSAVPGKRTSVVLNEDVLRFRTSP	not soluble
MAHHHHHHMQFHQFLCRFRNQVLLKGAFWSCPHQFRLGLHDRWKVNLVKVHIGVLGFFFKTHGESVVSGAKGDNLHGCRNGGVSALKVTNAFLNKIRNDQHTQIVPTIYQRGTPRQLSHEMSKIRILKVPMEHRRAFAHDTVIVSTLHRSVKTDVRGDTHRGTVLLHWKMHCLR	not soluble
MAHHHHHHMQPRHFHVCNFLLTCSCERGHPRVRCLRFAALRFAKPHFALLCRTSLCFFFATPTRAELATDGLKGRIYEVNLADLNNDEDQAHKKIKLCCDHIINKDCYTDFCGLSITRDKLCSLIRKGYTLIEGYTDVKTIDNYQLRMFCIAFTKKRPNQTKTTCYAQTSQIKKIRKKMVDIMNAEASKVMLKDLVKKFIPESIGKEVEKQCKKIYPLQNVLIRKVKILKRPKLDISKLMELHTDSKEDAGKNVKSLPESKEATNILSAELKH	soluble
MAHHHHHHMQSSALRPSSLLRAYHYVHPKTGRPIRQYRKYGDPRFINNEVALIKGLFALITTDFGMVTQSQLENARLAILRRMPRGSFALTMHTDYEEFPVVQKSPESRMGAGKSNIHHFAYKFTTGVPLFEITALSSRRLNQAEAEGIFLAGRSFIPLQTAVVPRGRVDEYHVFK	soluble
MAHHHHHHMRARRSCKFAEYLSTYAILEHIGIHPTTLIEKRDAAVGVGVYVRDACDAGTALLAVPSKRFCTTSVLSRVGLKTSFCSPWRADSEVPSTAFAGPTCDVQGGILSFLTGSTQWPELAWRLALEQHRSVSPLWGWLQSLPSVEELADRRDVAERQCRVHHTMLLPYYLKGRQRIREETVAAYSQLRAQNILPCFDRFAWAVDVVLSRGLLLPTAWPTAGGVFTNSTTDGEHEEEDSDPLPHTSLECGVVPFLDLVNAPDDVGRVVNADIEIATSLETLPKFLTDELAADATARGRGGDDLAEVKRLLETHYYLCLTLRKPLRASEEVILEWQVPVLTTEVLTAAEDAIVSRFLKYMF	not soluble
MAHHHHHHMRHSTYVEVCLRNIAYNVECIRRIAGKAELIPMVKGNAYGHGMGKVSEYLHNVCGVHTFGVASLGEALELIESQPSIAEKAQNEIFVFSDTEVLNEGCQSYYQPCGRWAVRLTPILGTLPQLKAFCASNAFNNTKLCLKLETGMNRLGLRFDELEEAVPILKQRGGVDLLLQHFGIAGSVERLAETLNHYEAFKNAKKFLHDSGVEVRATSVSNSGAVEQRIGLEETYIRPGIMLYGPRSVTSKNLWNGKFASCFYTKVLHHFPLRKGEGVGYDLTPVKADSVIVMLPIGYADGFLCTYKGMPIKVTPEDAAEPIIGTVHGRINMDMAAVVVYPEEVGKNIGNIMAAVKKESRIHVWGDDIEEKAVSVGAIPHQLTCGLSIRVPRIYM	not soluble
MAHHHHHHMRNSKEGNLIVHDLDFMKRILLNDERKWGEESAPGEGRTESSHQPKIITIVLNNTLCAHSAKFIANSDVLICADGGANRLYNLCQSLATERGAIDDEGSSLKGEEDKNTALHASHTNERSHHVSGRHTISDLFNMPVEKKEKALKRPTEIVPHIICGDFDSINAHVYSYYKNKSVIFEKCANQENTDLDKCIDVIRGYIRTNDKILILGATGNRFDHTCANISCLYKNASLNSLYLIGENNFLFLLQQGSHIIHVSPDVFCKGCGILPFGGKCTIKTEGLKYNLNDECLSFDTLISSSNEVVQREVKIFNDSPVVWSAQLRGDAQSHTHS	soluble
MAHHHHHHMRNSLRLRLSSTSSSLLRSTFWLRQCGSGGCGFSGGPGGYPTDADALAKILTQAKKGSFNGSSSSPSDFFDGRFVGGSPTMDPAMLQDMHQKLNQSLTPEVRESMKAMMESIQRGDGMPQMGMMAFGVGENEKGKKVARGAKLMFDPSTGKLSKDFVEKQLEDDDPVLPKETVGDYNTEGAIEVEFEEDARKEASVRENIPEAEVIVEEVPREK	not soluble
MAHHHHHHMRPLLVFGLRGTLLERIHASRVPSGMPGGAITVGMSRVWLRPSAMETLLALQQHCTLAVWSSTTARNTTPLMEAVFSQHAQKVNFAFVWSREHTTADEFRRVSATSRDDQHATVKDLREVYRRFPEIATPQNTVLIDDTPSKGKLNASNFLWLETCEELKIENPNVMPALRRFVEEHLLAEREDVRRLLPARVPWGQQ	not soluble
MAHHHHHHMRRSVIRTRKEFLERKQHERVHEAIHARKEQFRSAVETATPLPGHLKKDALALKKFTELDDAQTRNLTTTVDDEYANAGQEDPHVLVTTSRNASQKLLEFAKEVRLIVPNAVRMNRGNLSVHQLMDAARKENYTDVLVLQESQGVPDSLIVSHLPLGPTVTFTIHNLVARHDIDGVGTMSEQYPHLVFENFSTKLGIRIKDVLRYLFPVPKADASRVLTFDNENDFISFRHHTFKKEKGKKQVELTEVGPRFELTPYRIVLGTLEMDDAETEWVLQPYMNTAKKRRLL	soluble
MAHHHHHHMSASLKKTALHLFHLAQQAKMDAFAGYHMPISYGRLGVLKEHLYTREVAGIFDVSHVGQYEVRGADRERFLEHVTPVDLQRIRAGHGALTMLTNAQGGIKDDCIVTKMADHLFLVLNAGCKEKDVAHMESVLRESAMKGADVQLVPLDRSLIALQGPQAAAILSEFMDDVPGMGFMQCRQRVNIKGMEVQVTRCGYTGEDGFELSVSNTDIVALVELLMSRKAEMIGLGARDSLRLEAGLNLYGHELTEDINPVAARFMWVISKRRMAEGGFIGYEPIKYLRDNASKGAVPRLRVGLVSTGPVAREKTVIEVGGKPVGEVTSGCPSPCLKKNIAIGYLDRELAKDGVKVDLVVRGRRVAAVVVTPPFVPARYYRKPK	not soluble
MAHHHHHHMSATPPPPPPPSSNASTGYPHTRASPGTYRGAGRGAYSRGPSYQSSGSSPSSSPIYTSGPSRRGGGNTRVRVHTYGFVHADPAASLAAAPPASHTSAPRATPDVATPPLPSASSAASPPLSSISSDVLSSLNASVQESLSGYLYTDAIELAQRLFDLEASYAHLHLLAHCYTVSGATGTAYRLLQHYYPFLELHVTRPRTAGASTSAAGGAAGGVGSGVLPFDARRTWTASYGVHPSQHPFSSGMPSATAAVTFSASSNENNLTSDEFELGYETVDLQSQWDCQYLLGVCCYRTQHYEDGARVLSQLLYVCHQVTTTSSVLRRRLQQLRQQQQQVTVRSDTSEEDDAGVAAAVRATERQLAGLCLRDGGAHFAGALLVGSVREASPAAPDRG	not soluble

— the DeepSol protein solubility set
